# Positions count from the first letter of the chain named. Names and notes keep the numbering of the source.
# B1: 6×His-sortilin full-length (Full) (receptor)
# chain: SAPHHHHHHGEDEECGRVRDFVAKLANNTHQHVFDDLRGSVSLSWVGDSTGVILVLTTFHVPLVIMTFGQSKLYRSEDYGKNFKDITDLINNTFIRTEFGMAIGPENSGKVVLTAEVSGGSRGGRIFRSSDFAKNFVQTDLPFHPLTQMMYSPQNSDYLLALSTENGLWVSKNFGGKWEEIHKAVCLAKWGSDNTIFFTTYANGSCKADLGALELWRTSDLGKSFKTIGVKIYSFGLGGRFLFASVMADKDTTRRIHVSTDQGDTWSMAQLPSVGQEQFYSILAANDDMVFMHVDEPGDTGFGTIFTSDDRGIVYSKSLDRHLYTTTGGETDFTNVTSLRGVYITSVLSEDNSIQTMITFDQGGRWTHLRKPENSECDATAKNKNECSLHIHASYSISQKLNVPMAPLSEPNAVGIVIAHGSVGDAISVMVPDVYISDDGGYSWTKMLEGPHYYTILDSGGIIVAIEHSSRPINVIKFSTDEGQCWQTYTFTRDPIYFTGLASEPGARSMNISIWGFTESFLTSQWVSYTIDFKDILERNCEEKDYTIWLAHSTDPEDYEDGCILGYKEQFLRLRKSSMCQNGRDYVVTKQPSICLCSLEDFLCDFGYYRPENDSKCVEQPELKGHDLEFCLYGREEHLTTNGYRKIPGDKCQGGVNPVREVKDLKKKCTSNFLSPEKQNSKSNSVPIILAIVGLMLVTVVAGVLIVKKYVCGGRFLVHRYSVLQQHAEANGVDGVDALDTASHTNKSGYHDDSDEDLLE
# notes: 6×His inserted after Ser78-Ala79-Pro80; Written as the form after propeptide cleavage; also called 6×His-sortilin WT; 6×His-sortilin wild-type
# B2: FLAG-sortilin ECD+TMD (receptor)
# chain: SAPDYKDDDDKGEDEECGRVRDFVAKLANNTHQHVFDDLRGSVSLSWVGDSTGVILVLTTFHVPLVIMTFGQSKLYRSEDYGKNFKDITDLINNTFIRTEFGMAIGPENSGKVVLTAEVSGGSRGGRIFRSSDFAKNFVQTDLPFHPLTQMMYSPQNSDYLLALSTENGLWVSKNFGGKWEEIHKAVCLAKWGSDNTIFFTTYANGSCKADLGALELWRTSDLGKSFKTIGVKIYSFGLGGRFLFASVMADKDTTRRIHVSTDQGDTWSMAQLPSVGQEQFYSILAANDDMVFMHVDEPGDTGFGTIFTSDDRGIVYSKSLDRHLYTTTGGETDFTNVTSLRGVYITSVLSEDNSIQTMITFDQGGRWTHLRKPENSECDATAKNKNECSLHIHASYSISQKLNVPMAPLSEPNAVGIVIAHGSVGDAISVMVPDVYISDDGGYSWTKMLEGPHYYTILDSGGIIVAIEHSSRPINVIKFSTDEGQCWQTYTFTRDPIYFTGLASEPGARSMNISIWGFTESFLTSQWVSYTIDFKDILERNCEEKDYTIWLAHSTDPEDYEDGCILGYKEQFLRLRKSSMCQNGRDYVVTKQPSICLCSLEDFLCDFGYYRPENDSKCVEQPELKGHDLEFCLYGREEHLTTNGYRKIPGDKCQGGVNPVREVKDLKKKCTSNFLSPEKQNSKSNSVPIILAIVGLMLVTVVAGVLIV
# notes: written as the form after propeptide cleavage; also called FLAG-sortilin ECD plus transmembrane domain
# B3: FLAG-sortilin full-length (Full) (receptor)
# chain: SAPDYKDDDDKGEDEECGRVRDFVAKLANNTHQHVFDDLRGSVSLSWVGDSTGVILVLTTFHVPLVIMTFGQSKLYRSEDYGKNFKDITDLINNTFIRTEFGMAIGPENSGKVVLTAEVSGGSRGGRIFRSSDFAKNFVQTDLPFHPLTQMMYSPQNSDYLLALSTENGLWVSKNFGGKWEEIHKAVCLAKWGSDNTIFFTTYANGSCKADLGALELWRTSDLGKSFKTIGVKIYSFGLGGRFLFASVMADKDTTRRIHVSTDQGDTWSMAQLPSVGQEQFYSILAANDDMVFMHVDEPGDTGFGTIFTSDDRGIVYSKSLDRHLYTTTGGETDFTNVTSLRGVYITSVLSEDNSIQTMITFDQGGRWTHLRKPENSECDATAKNKNECSLHIHASYSISQKLNVPMAPLSEPNAVGIVIAHGSVGDAISVMVPDVYISDDGGYSWTKMLEGPHYYTILDSGGIIVAIEHSSRPINVIKFSTDEGQCWQTYTFTRDPIYFTGLASEPGARSMNISIWGFTESFLTSQWVSYTIDFKDILERNCEEKDYTIWLAHSTDPEDYEDGCILGYKEQFLRLRKSSMCQNGRDYVVTKQPSICLCSLEDFLCDFGYYRPENDSKCVEQPELKGHDLEFCLYGREEHLTTNGYRKIPGDKCQGGVNPVREVKDLKKKCTSNFLSPEKQNSKSNSVPIILAIVGLMLVTVVAGVLIVKKYVCGGRFLVHRYSVLQQHAEANGVDGVDALDTASHTNKSGYHDDSDEDLLE
# notes: signal peptide 1-33 is implied by that; Expressed in HEK293 cells; also called FLAG-sortilin WT; FLAG-sortilin wild-type
# B4: FLAG-sortilin S316E (receptor)
# chain: B3 chain with S247E
# B5: 6×His-sortilin ICD+TMD C783A (receptor)
# chain: SAPHHHHHHNSVPIILAIVGLMLVTVVAGVLIVKKYVAGGRFLVHRYSVLQQHAEANGVDGVDALDTASHTNKSGYHDDSDEDLLE
# How the values were obtained:
# [1] = biological target: B3; test: TR-FRET and HTRF on HEK293 cells, anti-FLAG(M2)-Cryptate and anti-6HIS-XL665
# Method: TR-FRET and HTRF were performed as described (26). FLAG-sortilin Full HEK293 cells were harvested using dissociation solution (e.g., from Sigma Aldrich, Cat#C5914) 24 hours after transfection of 6×His-sortilin expression vector. An incubation under the circle rotator was performed at 4° C. with 1×10^6 cells/mL for TR-FRET and 2×10^6 cells/mL for HTRF containing 1 nmol/L Anti-FLAG® (M2)-Cryptate (Cisbio Bioassays, Cat#61FG2KLA, Lot#25A) and 3 nmol/L Anti-6HIS-XL665 (Cisbio Bioassays, Cat#61HISXLA, Lot#56A) in PBS supplemented with 25% FBS. For TR-FRET, cells were centrifuged at 1,000 rpm for 5 min to remove the antibodies, and resuspended in PBS, and applied into a 96-well white plate. For HTRF, cells were applied without removing the antibodies into a 96-well white plate. Then, the plate was read (excitation: 320 nm, emission: 620 nm (cutoff 570 nm), 665 nm (cutoff 630 nm), Delay […], Integration […]). The FRET signal was calculated as (the ratio of counts per seconds 665:620)×10,000, and % change of the FRET signal by 6×His-sortilin expression was expressed.
# [2] = biological target: the molecule itself; test: non-reducing western blot; BS3 cross-linking, HEK293 cells
# Text: In reducing western blotting, protein expressions of FLAG-sortilin Full, ECD+TMD and ICD+TMD were detected as bands of plausible molecular size (FIG. 2B). In non-reducing western blotting where disulfide bonds can be retained, FLAG-sortilin Full and ECD+TMD expressed a couple of bands (FIG. 2C). A band of 75-100 kDa was detected as monomers (FIG. 2C). Bands of approximately 200 kDa and higher molecular weight were detected as homodimers and multimers with intermolecular disulfide bonds (FIG. 2C). Next, FLAG-sortilin Full and ECD+TMD were cross-linked using water-soluble, non-cleavable cross-linker, BS3, in HEK293 cells. Both bands of homodimers and multimers appeared via the cross-linking (FIG. 2D). […] Dimerization of FLAG-sortilin ICD+TMD was not clearly detected in the non-reducing western blotting using whole cell lysate (FIG. 2C) potentially due to low protein expression levels of FLAG-sortilin ICD+TMD (FIGS. 2B, 2C). […] Therefore, it was determined whether FLAG-sortilin ICD+TMD can undergo degradation in proteasome and lysosome by adding proteasome inhibitor, MG-132, and lysosome inhibitor, chloroquine, to FLAG-sortilin ICD+TMD HEK293 cells, respectively. […] In non-reducing western blotting, bands with molecular size approximately twice as high as monomers of FLAG-sortilin ICD+TMD were detected (FIG. 2G). […]
# [3] = biological target: the molecule itself; test: non-reducing western blot, HEK293 cells
Binder,binding result [2],binding result [3],also measured
B1,–,–,binding result [1]: binds
B2,binds,–,–
B3,binds,–,–
B4,–,binds,–
B5,–,no binding,–
